Test results reported in patent US20060259987A1 (UNIVERSITY OF UTAH RESEARCH FOUNDATION, published 2006).
Changes are numbered by the printed parent chain. In names and notes the source's numbering stands.

T1: human neutrophil cathepsin G (human, UniProt P08311 21-244)
T1 sequence (looked up): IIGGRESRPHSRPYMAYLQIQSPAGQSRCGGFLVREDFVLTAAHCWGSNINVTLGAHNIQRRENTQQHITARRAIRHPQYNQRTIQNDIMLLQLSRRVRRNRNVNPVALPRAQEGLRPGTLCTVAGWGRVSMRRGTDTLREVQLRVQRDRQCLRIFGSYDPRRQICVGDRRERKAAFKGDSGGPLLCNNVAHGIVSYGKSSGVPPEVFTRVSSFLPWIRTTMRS

T2: human neutrophil elastase (human, UniProt P08246 30-247, limits assumed)
T2 sequence (looked up): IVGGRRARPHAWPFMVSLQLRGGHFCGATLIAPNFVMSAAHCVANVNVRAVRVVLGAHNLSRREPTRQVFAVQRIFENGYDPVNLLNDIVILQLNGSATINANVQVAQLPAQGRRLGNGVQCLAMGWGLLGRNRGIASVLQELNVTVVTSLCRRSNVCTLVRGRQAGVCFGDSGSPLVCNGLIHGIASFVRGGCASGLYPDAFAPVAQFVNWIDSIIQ

B1: LEAQ.502 (other)
chain: SPVDICTAKPRDIPMNPMCIYRSPEKKATEDEGSEQKIPEATNRRVWELSKANSRFATTFYQHLADSKNDNDNIFLSPLSISTAFAMTKLGACNDTLQQLMEVFKFDTISEKTSDQIHFFFAKLNCRLYRKANKASKLVSANRLFGDKSLTFNETYQDISELVYGAKLQPLDFKENAEQSRAAINKWVSNKTEGRITDVIPSEAINELTVLVLVNTIYFKGLWKSKFSPENTRKELFYKADGESCSASMMYQEGKFRYRRVAEGTQVLELPFKGDDITMVLILPKPEKSLAKVEKELTPEVLQEWLDELEEMMLVVHMPRFRIEDGFSLKEQLQDMGLVDLFSPEKSKLPGIVAEGRDDLYVSDAFHKAFLEVNEEGSEAAASTALSAQGRSLNPNRVTFKANRPFLVFIREVPLNTIIFMGRVANPCVK
notes: also called DES.LEAQ.502
B2: LEAQ.503 (other)
chain: B1 chain with S387T
notes: also called DES.LEAQ.503
B3: LEAQ.504 (other)
chain: B1 chain with S387N
notes: also called DES.LEAQ.504
B4: LEAQ.506 (other)
chain: B1 chain with S387H
notes: also called DES.LEAQ.506
B5: LEAQ.508 (other)
chain: B1 chain with S387K
notes: also called DES.LEAQ.508
B6: 7EVEA.455 (other)
chain: B1 chain with A385E, L386V, S387E, A388V, Q389A
modifications: N-linked glycans added by Drosophila S2 cells; not carried by the letters
notes: Made in Drosophila S2 cells (DES) on the S137A background; N-terminus printed as SPVDI---
B7: 7EVEA.458 (other)
chain: B1 chain with A385E, L386V, S387E, Q389A, G390P
modifications: N-linked glycans added by Drosophila S2 cells; not carried by the letters
notes: as for B6
B8: 7EVEA.459 (other)
chain: B1 chain with A385E, L386V, S387E, A388I, Q389A, G390P
notes: as for B6
B9: 13C (other)
chain: B1 chain with A385E, S387E, A388G, Q389A
notes: N-terminus printed as SPVDI---; text (ELEG) and primer codon GAG give E
B10: 13C.444 (other)
chain: B1 chain with A385E, S387E, A388V, Q389A, G390P
modifications: N-linked glycans added by Drosophila S2 cells; not carried by the letters
notes: as for B6

Legend:
[1] = target: T3, human thrombin (human, UniProt P00734 328-622); assay: thrombin inhibition rate in the absence of heparin
[2] = target: T3, human thrombin; assay: cell-based or functional assay
[3] = target: T1, human neutrophil cathepsin G; assay: cell-based or functional assay
[4] = target: T2, human neutrophil elastase; assay: cell-based or functional assay
[5] = target: human factor Xa (human, UniProt P00742 41-179; P00742 235-488, limits assumed); assay: cell-based or functional assay
[6] = target: T3, human thrombin; assay: thrombin inhibition rate in the presence of heparin (HAH)
[7] = target: T4, thrombin (human, UniProt P00734 328-622); assay: heparin cofactor assay, HCA expt #4; ATIII titrated on 10 nM thrombin + 50 ug/ml UFH, chromogenic readout
Procedure: (§1) After 3 minutes, the reactions were quenched with polybrene and chromogenic substrate S2238 (thrombin) or S2765 (fXa), and the initial rate of chromophore production (405 nm) recorded to obtain a measurement residual, uninhibited thrombin or factor Xa. IC50s were determined from plots of ATIII concentration vs. percent residual target enzyme activity.

[8] = target: T5, factor Xa (human, UniProt P00742 41-179; P00742 235-488, limits assumed); assay: heparin cofactor assay, HCA expt #4; ATIII titrated on 10 nM fXa + 50 ug/ml UFH, chromogenic readout
T5 construct: Active factor Xa has a light and a heavy chain; also called fXa
Procedure: as §1

[9] = target: T4, thrombin; assay: heparin cofactor assay, HCA expt #2; ATIII titrated on 10 nM thrombin + 50 ug/ml UFH, chromogenic readout
Procedure: as §1

[10] = target: T5, factor Xa; assay: heparin cofactor assay, HCA expt #2; ATIII titrated on 10 nM fXa + 50 ug/ml UFH, chromogenic readout
Procedure: as §1

[11] = target: T4, thrombin; assay: cell-based or functional assay
[12] = target: T5, factor Xa; assay: cell-based or functional assay

Sequence of human factor Xa (P00742 41-179 limits assumed, chain 1 of 2): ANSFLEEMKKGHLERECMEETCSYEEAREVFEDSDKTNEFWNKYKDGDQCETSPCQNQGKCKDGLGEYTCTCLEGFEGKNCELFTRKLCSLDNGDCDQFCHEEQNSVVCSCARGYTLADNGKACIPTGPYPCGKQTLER
Sequence of human factor Xa (P00742 235-488 limits assumed, chain 2 of 2): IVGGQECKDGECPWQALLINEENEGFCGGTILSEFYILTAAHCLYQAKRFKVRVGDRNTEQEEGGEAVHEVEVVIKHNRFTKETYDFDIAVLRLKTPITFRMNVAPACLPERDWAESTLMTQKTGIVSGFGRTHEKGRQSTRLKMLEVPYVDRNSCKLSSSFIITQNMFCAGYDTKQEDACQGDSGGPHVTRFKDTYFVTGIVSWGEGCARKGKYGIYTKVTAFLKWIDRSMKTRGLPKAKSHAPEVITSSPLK
T5 sequence (P00742 41-179 limits assumed, form in doubt, chain 1 of 2): as the sequence (P00742 41-179 limits assumed, chain 1 of 2) above
T5 sequence (P00742 235-488 limits assumed, form in doubt, chain 2 of 2): as the sequence (P00742 235-488 limits assumed, chain 2 of 2) above

Row | Binder | Kapp, thrombin progressive [1] | IC50 IIa/UFH (HCA #5) [2] | rsd IIa, no add (CA #51, stg 1 conc 200) [2] | rsd IIa, catG (CA #51, stg 1 conc 200) [3] | rsd Xa, catG (CA #51, stg 1 conc 200) [3] | rsd IIa, HNE (CA #51, stg 1 conc 200) [4] | rsd Xa, HNE (CA #51, stg 1 conc 200) [4] | IC50 fXa/UFH (HCA #5) [5] | rsd Xa, no add (CA #51, stg 1 conc 200) [5] | Kapp, thrombin HAH [6] | IC50 [7] | IC50 [8] | other results
1 | B1 | 3000 M⁻¹ s⁻¹ | 16 nM | 1% | 2% | -1% | 1% | 1% | 12 nM | 1% | 1.1e+07 M⁻¹ s⁻¹ | – | – | IC50 IIa/UFH (HCA #6) [2]: 18 nM; IC50 fXa/UFH (HCA #6) [5]: 19 nM
2 | B2 | 3700 M⁻¹ s⁻¹ | 13 nM | 0% | 1% | -2% | 1% | 0% | 11 nM | 1% | 1.6e+07 M⁻¹ s⁻¹ | – | – | –
3 | B3 | 3300 M⁻¹ s⁻¹ | 17 nM | 1% | 1% | -1% | 1% | 1% | 14 nM | 0% | 6.1e+06 M⁻¹ s⁻¹ | – | – | –
4 | B4 | 4100 M⁻¹ s⁻¹ | 9 nM | – | – | – | – | – | 13 nM | – | 1.1e+07 M⁻¹ s⁻¹ | – | – | –
5 | B5 | 4100 M⁻¹ s⁻¹ | 18 nM | 1% | 1% | -2% | 1% | -3% | 19 nM | -1% | 1.1e+07 M⁻¹ s⁻¹ | – | – | –
6 | B6 | – | – | – | – | – | – | – | – | – | – | > 1000 nM | 110 nM | –
7 | B7 | – | – | – | – | – | – | – | – | – | – | > 1000 nM | 250 nM | –
8 | B8 | – | – | – | – | – | – | – | – | – | – | > 1000 nM | 75 nM | –
9 | B9 | – | – | – | – | – | – | – | – | – | – | > 1000 nM | 33 nM | –
10 | B10 | – | – | – | – | – | – | – | – | – | – | – | – | IC50 [9]: > 1000 nM; IC50 [10]: 40 nM; rsd. IIa catG; CA expt #7; stg1 conc 200 [11]: 5 % of activity without ATIII; rsd. IIa hne; CA expt #7; stg1 conc 200 [11]: 14 % of activity without ATIII; rsd. IIa no add; CA expt #7; stg1 conc 200 [11]: 6 % of activity without ATIII; rsd. Xa catG; CA expt #7; stg1 conc 200 [12]: 3 % of activity without ATIII; rsd. Xa hne; CA expt #7; stg1 conc 200 [12]: 3 % of activity without ATIII; rsd. Xa no add; CA expt #7; stg1 conc 200 [12]: 3 % of activity without ATIII
